Source: PMC8666670 (2021)

Biological target: GlmU, glucosamine-1-phosphate N-acetyl transferase/N-acetyl-glucosamine-1-phosphate uridylyltransferase of E. … (E. coli, UniProt P0ACC7 1-456)
Experiment: SPR

Sequence of GlmU, glucosamine-1-phosphate N-acetyl transferase/N-acetyl-glucosamine-1-phosphate uridylyltransferase of E. … (P0ACC7 whole entry): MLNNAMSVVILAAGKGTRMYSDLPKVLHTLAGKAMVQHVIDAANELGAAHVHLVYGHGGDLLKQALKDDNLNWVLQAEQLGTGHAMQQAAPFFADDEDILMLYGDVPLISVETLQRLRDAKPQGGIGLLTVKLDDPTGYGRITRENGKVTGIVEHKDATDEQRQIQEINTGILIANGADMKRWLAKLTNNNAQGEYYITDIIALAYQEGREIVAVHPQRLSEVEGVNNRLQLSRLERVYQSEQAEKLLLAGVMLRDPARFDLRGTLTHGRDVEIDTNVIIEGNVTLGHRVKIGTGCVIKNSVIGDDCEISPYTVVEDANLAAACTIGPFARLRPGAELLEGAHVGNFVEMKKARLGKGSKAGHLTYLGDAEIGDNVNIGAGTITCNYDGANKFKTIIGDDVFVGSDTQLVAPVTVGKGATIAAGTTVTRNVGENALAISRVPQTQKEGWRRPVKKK

B1: acetyl-acyl carrier protein (acetyl-ACP) (natural protein)
chain: MSTIEERVKKIIGEQLGVKQEEVTNNASFVEDLGADSLDTVELVMALEEEFDTEIPDEEAEKITTVQAAIDYINGHQA
modifications: prosthetic group with attached acetyl chain (acetyl thioester), made from apo-ACP and acetyl-CoA with [ACP]synthase
Kd: 82.5 µM
